Data on 1 substance can be found in paper PMC3644619.

A value given as a limit tells only on which side of the number the result lay.

This experiment addresses hormone-binding domain (HBD) of ERα. Kind of experiment: two-hybrid.

hormone-binding domain (HBD) of ERα, sequence (P03372 whole entry, the tested form may be a part): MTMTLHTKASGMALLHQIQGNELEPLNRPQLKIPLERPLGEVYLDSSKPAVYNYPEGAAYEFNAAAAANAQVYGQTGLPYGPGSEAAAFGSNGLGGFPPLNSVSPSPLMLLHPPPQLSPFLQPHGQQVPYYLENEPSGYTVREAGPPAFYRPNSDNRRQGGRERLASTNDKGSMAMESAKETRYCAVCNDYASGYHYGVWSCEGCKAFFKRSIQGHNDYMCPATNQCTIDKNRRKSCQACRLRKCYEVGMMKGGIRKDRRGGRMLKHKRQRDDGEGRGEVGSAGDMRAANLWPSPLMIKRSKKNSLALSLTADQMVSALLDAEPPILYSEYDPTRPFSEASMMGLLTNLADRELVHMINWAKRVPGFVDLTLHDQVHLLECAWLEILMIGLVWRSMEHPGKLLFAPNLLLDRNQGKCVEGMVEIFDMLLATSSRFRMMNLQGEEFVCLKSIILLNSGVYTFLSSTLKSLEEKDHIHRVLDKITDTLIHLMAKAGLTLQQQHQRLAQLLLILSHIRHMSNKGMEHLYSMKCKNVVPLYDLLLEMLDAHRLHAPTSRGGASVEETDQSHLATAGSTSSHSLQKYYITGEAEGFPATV
PNRC1d, sequence (Q12796 186-327): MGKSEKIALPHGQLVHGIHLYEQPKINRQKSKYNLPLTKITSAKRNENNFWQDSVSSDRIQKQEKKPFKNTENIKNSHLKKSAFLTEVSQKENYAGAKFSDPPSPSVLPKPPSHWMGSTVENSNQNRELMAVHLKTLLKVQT

“PNRC1d (from UniProt Q12796 186-327) (natural protein)” yielded a fold increase of affinity compared to fl PNRC (two-hybrid β-galactosidase) greater than 10 fold.
